± gives the uncertainty stated by the source.
B1: Histone-lysine N-methyltransferase SETD2, residues 2382 to 2430; numbered along this chain, Q9BYW2 (parent)
chain: SPPKPKTIVLPPNWKTARDPEGKIYYYHVITRQTQWDPPTWESPGDDAS

Variants of: B1
Assay: abundance fitness (aPCA) (normalised: wild type 0, dead -1); higher = more abundant; growth selection in yeast, the domain comes from the species named
Conditions: Homo sapiens

SPPKPKTIVLPPNWKTARDPEGKIYYYHVITGQTQWDPPTWESPGDDAS [R32G] and SPPKPKTIVLPPNWKTARDPEGKIYYYHVITHQTQWDPPTWESPGDDAS [R32H] are within error of each other in abundance fitness: -0.173 ± 0.042 for the first, -0.131 ± 0.1 for the second.

Going from SPPKPKTIVLPPNWKTARDPEGKIYYYHVITIQTQWDPPTWESPGDDAS [R32I] to SPPKPKTIVLPPNWKTARDPEGKIYYYHVITKQTQWDPPTWESPGDDAS [R32K], the abundance fitness rises from -0.997 ± 0.39 to 0.13 ± 0.076.

Compared with SPPKPKTIVLPPNWKTARDPEGKIYYYHVITLQTQWDPPTWESPGDDAS [R32L], SPPKPKTIVLPPNWKTARDPEGKIYYYHVITMQTQWDPPTWESPGDDAS [R32M] is higher in abundance fitness: -0.315 ± 0.039 for the first, -0.15 ± 0.069 for the second.

Going from SPPKPKTIVLPPNWKTARDPEGKIYYYHVITNQTQWDPPTWESPGDDAS [R32N] to SPPKPKTIVLPPNWKTARDPEGKIYYYHVITPQTQWDPPTWESPGDDAS [R32P], the abundance fitness falls from 0.031 ± 0.1 to -0.617 ± 0.057.

Going from SPPKPKTIVLPPNWKTARDPEGKIYYYHVITQQTQWDPPTWESPGDDAS [R32Q] to SPPKPKTIVLPPNWKTARDPEGKIYYYHVITSQTQWDPPTWESPGDDAS [R32S], the abundance fitness falls from -0.022 ± 0.039 to -0.363 ± 0.058.

SPPKPKTIVLPPNWKTARDPEGKIYYYHVITTQTQWDPPTWESPGDDAS [R32T] and SPPKPKTIVLPPNWKTARDPEGKIYYYHVITVQTQWDPPTWESPGDDAS [R32V] are the same in abundance fitness: -1.01 ± 0.27 for the first, -1.01 ± 0.14 for the second.

Going from SPPKPKTIVLPPNWKTARDPEGKIYYYHVITWQTQWDPPTWESPGDDAS [R32W] to SPPKPKTIVLPPNWKTARDPEGKIYYYHVITYQTQWDPPTWESPGDDAS [R32Y], the abundance fitness rises from -0.848 ± 0.05 to -0.215 ± 0.091.

First: SPPKPKTIVLPPNWKTARDPEGKIYYYHVITRATQWDPPTWESPGDDAS [Q33A]
Second: SPPKPKTIVLPPNWKTARDPEGKIYYYHVITRCTQWDPPTWESPGDDAS [Q33C]
The abundance fitness of the first is higher: -0.149 ± 0.051 for the first, -0.251 ± 0.048 for the second.

Going from SPPKPKTIVLPPNWKTARDPEGKIYYYHVITRDTQWDPPTWESPGDDAS [Q33D] to SPPKPKTIVLPPNWKTARDPEGKIYYYHVITRETQWDPPTWESPGDDAS [Q33E], the abundance fitness rises from -0.185 ± 0.087 to 0.099 ± 0.059.

SPPKPKTIVLPPNWKTARDPEGKIYYYHVITRFTQWDPPTWESPGDDAS [Q33F] and SPPKPKTIVLPPNWKTARDPEGKIYYYHVITRGTQWDPPTWESPGDDAS [Q33G] are within error of each other in abundance fitness: -0.906 ± 0.28 for the first, -0.798 ± 0.064 for the second.

SPPKPKTIVLPPNWKTARDPEGKIYYYHVITRHTQWDPPTWESPGDDAS [Q33H] and SPPKPKTIVLPPNWKTARDPEGKIYYYHVITRITQWDPPTWESPGDDAS [Q33I] are within error of each other in abundance fitness: -0.578 ± 0.14 for the first, -0.551 ± 0.17 for the second.

SPPKPKTIVLPPNWKTARDPEGKIYYYHVITRKTQWDPPTWESPGDDAS [Q33K] and SPPKPKTIVLPPNWKTARDPEGKIYYYHVITRLTQWDPPTWESPGDDAS [Q33L] are within error of each other in abundance fitness: -0.401 ± 0.12 for the first, -0.411 ± 0.038 for the second.

Going from SPPKPKTIVLPPNWKTARDPEGKIYYYHVITRMTQWDPPTWESPGDDAS [Q33M] to SPPKPKTIVLPPNWKTARDPEGKIYYYHVITRNTQWDPPTWESPGDDAS [Q33N], the abundance fitness rises from -0.614 ± 0.12 to -0.117 ± 0.14.

Going from SPPKPKTIVLPPNWKTARDPEGKIYYYHVITRPTQWDPPTWESPGDDAS [Q33P] to SPPKPKTIVLPPNWKTARDPEGKIYYYHVITRRTQWDPPTWESPGDDAS [Q33R], the abundance fitness rises from -0.904 ± 0.075 to -0.318 ± 0.056.

SPPKPKTIVLPPNWKTARDPEGKIYYYHVITRTTQWDPPTWESPGDDAS [Q33T] and SPPKPKTIVLPPNWKTARDPEGKIYYYHVITRVTQWDPPTWESPGDDAS [Q33V] are within error of each other in abundance fitness: -0.13 ± 0.087 for the first, -0.251 ± 0.038 for the second.

Compared with SPPKPKTIVLPPNWKTARDPEGKIYYYHVITRWTQWDPPTWESPGDDAS [Q33W], SPPKPKTIVLPPNWKTARDPEGKIYYYHVITRQAQWDPPTWESPGDDAS [T34A] is higher in abundance fitness: -0.751 ± 0.054 for the first, -0.296 ± 0.067 for the second.

First: SPPKPKTIVLPPNWKTARDPEGKIYYYHVITRQCQWDPPTWESPGDDAS [T34C]
Second: SPPKPKTIVLPPNWKTARDPEGKIYYYHVITRQDQWDPPTWESPGDDAS [T34D]
The abundance fitness of the first is higher: -0.109 ± 0.1 for the first, -0.774 ± 0.055 for the second.

First: SPPKPKTIVLPPNWKTARDPEGKIYYYHVITRQEQWDPPTWESPGDDAS [T34E]
Second: SPPKPKTIVLPPNWKTARDPEGKIYYYHVITRQFQWDPPTWESPGDDAS [T34F]
The abundance fitness of the first is lower: -0.394 ± 0.062 for the first, -0.059 ± 0.061 for the second.

Compared with SPPKPKTIVLPPNWKTARDPEGKIYYYHVITRQGQWDPPTWESPGDDAS [T34G], SPPKPKTIVLPPNWKTARDPEGKIYYYHVITRQHQWDPPTWESPGDDAS [T34H] is higher in abundance fitness: -0.379 ± 0.039 for the first, -0.059 ± 0.064 for the second.

First: SPPKPKTIVLPPNWKTARDPEGKIYYYHVITRQIQWDPPTWESPGDDAS [T34I]
Second: SPPKPKTIVLPPNWKTARDPEGKIYYYHVITRQKQWDPPTWESPGDDAS [T34K]
The abundance fitness of the first is higher: -0.149 ± 0.079 for the first, -0.605 ± 0.29 for the second.

Going from SPPKPKTIVLPPNWKTARDPEGKIYYYHVITRQLQWDPPTWESPGDDAS [T34L] to SPPKPKTIVLPPNWKTARDPEGKIYYYHVITRQMQWDPPTWESPGDDAS [T34M], the abundance fitness rises from -0.342 ± 0.047 to 0.188 ± 0.077.

SPPKPKTIVLPPNWKTARDPEGKIYYYHVITRQNQWDPPTWESPGDDAS [T34N] and SPPKPKTIVLPPNWKTARDPEGKIYYYHVITRQPQWDPPTWESPGDDAS [T34P] are within error of each other in abundance fitness: -0.493 ± 0.22 for the first, -0.29 ± 0.068 for the second.

Compared with SPPKPKTIVLPPNWKTARDPEGKIYYYHVITRQQQWDPPTWESPGDDAS [T34Q], SPPKPKTIVLPPNWKTARDPEGKIYYYHVITRQRQWDPPTWESPGDDAS [T34R] is higher in abundance fitness: -0.111 ± 0.042 for the first, 0.109 ± 0.045 for the second.

Going from SPPKPKTIVLPPNWKTARDPEGKIYYYHVITRQVQWDPPTWESPGDDAS [T34V] to SPPKPKTIVLPPNWKTARDPEGKIYYYHVITRQWQWDPPTWESPGDDAS [T34W], the abundance fitness falls from -0.075 ± 0.052 to -0.18 ± 0.036.

Compared with SPPKPKTIVLPPNWKTARDPEGKIYYYHVITRQYQWDPPTWESPGDDAS [T34Y], SPPKPKTIVLPPNWKTARDPEGKIYYYHVITRQTAWDPPTWESPGDDAS [Q35A] is higher in abundance fitness: -0.52 ± 0.16 for the first, -0.155 ± 0.053 for the second.

First: SPPKPKTIVLPPNWKTARDPEGKIYYYHVITRQTCWDPPTWESPGDDAS [Q35C]
Second: SPPKPKTIVLPPNWKTARDPEGKIYYYHVITRQTDWDPPTWESPGDDAS [Q35D]
The abundance fitness of the first is higher: -0.337 ± 0.085 for the first, -0.869 ± 0.24 for the second.

SPPKPKTIVLPPNWKTARDPEGKIYYYHVITRQTEWDPPTWESPGDDAS [Q35E] gave an abundance fitness of -0.547 ± 0.09.
